# Measured values as given in PMC9817130 (2023).
# How the values were obtained:
# [1] = target: T1, SARS-CoV-2 WT RBD protein (Sino Biological) (SARS-CoV-2, UniProt P0DTC2 319-541); test: SPR
# [2] = target: T1, SARS-CoV-2 WT RBD protein (Sino …); test: SPR; remark: listed apart in the source
Binder,koff [1],Kd [2]
"P2D9 monoclonal antibody (IgG) (antibody, V domains shown) VH: EVQLVESGAEVKKPGSSVKVSCKASGDTFYTFDISWVRQAPGQGLEWMGGISPVFDAPNYAQKFQDRVTITADKSTSTAYMELSSLRSEDTAIYYCVKPTYSNYVWGIGAFDVWGQGTTVTVSS VL: EIVLTQSPGTLSLSPGERATLSCRASQSVGNIYLAWYQQKPGQAPRLLIYGASTRATGIPDRFSGSGSGTDFTLTISRLEPEDFAVYYCQQYGDSLWTFGQGTKVEIK",4.34e-05 s⁻¹,0.202 nM
"P3E6 monoclonal antibody (IgG) (antibody, V domains shown) VH: EVQLLDSGGGLVQPGGSLRLSCAVSGFTFSNYAMNWVRQTPGKELEWVSAISGTGDDTHYADSVRGRFTISSDNSKNTVYLQMNSLRVEDTAIYYCAKAISRYPWGCLDYWGQGTLVTVSS VL: not shown",0.00014 s⁻¹,0.558 nM
"P1D9 monoclonal antibody (IgG) (antibody, V domains shown) VH: EVQLVQSGAEVKKPGSSVRVSCKASGGTFGDDSITWVRQAPGQGLEWMGGIFPLIGKTHYAQRFQGRLTVTADKSTSTAYMELSGLRSEDTAIYYCARDWGTTLTAFDIWGQGTMVTVSS VL: DIQMTQSPSSLSASVGDTVTITCRAGQTINTFLNWYQQKPGKAPKLLIYAASTLQSGVPSRFSGSGSGTDFTLTINSLQPEDFATYYCQQSYSNLYTFSQGTKVEIK",7.68e-05 s⁻¹,0.188 nM
"P2B4 monoclonal antibody (IgG) (antibody, V domains shown) VH: EVQLVESGGGLVQPGRSLRLSCAASGFNFDDYAMHWARQVPGKGLEWVSGISGNSGSVEYADSVKGRFAMSRDNAKNSLYLEMNSLRTEDTALYYCAKETTPWGIYRSGGLDVWGQGTTVTVSS VL: DIQMTQSPSSLSASVGDRVTITCRASQSIHSFLSWYQQKPGKAPKLLINSASTLQSGVPPWFSGSGSGTDFTLTISSLQPEDFATYYCQQSYIAPWTFGQGTKVEIK",1.37e-05 s⁻¹,0.143 nM
